{"source": "IntAct's records for PubMed 32296183", "parents": {"B1": {"name": "Ceroid-lipofuscinosis neuronal protein 6 (Homo sapiens), Q9NWW5 (parent)", "chain": "MEATRRRQHLGATGGPGAQLGASFLQARHGSVSADEAARTAPFHLDLWFYFTLQNWVLDFGRPIAMLVFPLEWFPLNKPSVGDYFHMAYNVITPFLLLKLIERSPRTLPRSITYVSIIIFIMGASIHLVGDSVNHRLLFSGYQHHLSVRENPIIKNLKPETLIDSFELLYYYDEYLGHCMWYIPFFLILFMYFSGCFTASKAESLIPGPALLLVAPSGLYYWYLVTEGQIFILFIFTFFAMLALVLHQKRKRLFLDSNGLFLFSSFALTLLLVALWVAWLWNDPVLRKKYPGVIYVPEPWAFYTLHVSSRH", "partner": "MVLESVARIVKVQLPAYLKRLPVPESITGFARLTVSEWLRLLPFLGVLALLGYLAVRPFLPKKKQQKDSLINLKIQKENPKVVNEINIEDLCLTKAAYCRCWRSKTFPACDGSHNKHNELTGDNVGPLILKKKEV"}, "B2": {"name": "Ceroid-lipofuscinosis neuronal protein 6 (Homo sapiens), Q9NWW5 (parent)", "chain": "B1 chain", "partner": "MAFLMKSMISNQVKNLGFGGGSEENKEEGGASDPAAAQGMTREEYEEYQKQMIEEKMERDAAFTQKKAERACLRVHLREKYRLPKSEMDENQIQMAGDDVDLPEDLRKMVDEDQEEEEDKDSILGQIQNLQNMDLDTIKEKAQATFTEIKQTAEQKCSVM"}, "B3": {"name": "Golgi SNAP receptor complex member 2 (Homo sapiens), O14653 (parent)", "chain": "MDPLFQQTHKQVHEIQSCMGRLETADKQSVHIVENEIQASIDQIFSRLERLEILSSKEPPNKRQNARLRVDQLKYDVQHLQTALRNFQHRRHAREQQERQREELLSRTFTTNDSDTTIPMDESLQFNSSLQKVHNGMDDLILDGHNILDGLRTQRLTLKGTQKKILDIANMLGLSNTVMRLIEKRAFQDKYFMIGGMLLTCVVMFLVVQYLT", "partner": "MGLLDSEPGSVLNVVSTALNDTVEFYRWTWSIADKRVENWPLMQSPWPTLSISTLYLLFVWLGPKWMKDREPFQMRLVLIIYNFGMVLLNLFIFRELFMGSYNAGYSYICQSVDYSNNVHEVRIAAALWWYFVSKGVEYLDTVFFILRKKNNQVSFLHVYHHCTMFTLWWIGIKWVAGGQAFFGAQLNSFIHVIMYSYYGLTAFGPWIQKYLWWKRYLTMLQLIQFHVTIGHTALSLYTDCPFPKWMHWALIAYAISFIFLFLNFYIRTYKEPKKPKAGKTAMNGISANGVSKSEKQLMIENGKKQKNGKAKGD"}, "B4": {"name": "Succinate--CoA ligase [ADP-forming] subunit beta, mitochondrial (Homo sapiens), Q9P2R7 (parent)", "chain": "MAASMFYGRLVAVATLRNHRPRTAQRAAAQVLGSSGLFNNHGLQVQQQQQRNLSLHEYMSMELLQEAGVSVPKGYVAKSPDEAYAIAKKLGSKDVVIKAQVLAGGRGKGTFESGLKGGVKIVFSPEEAKAVSSQMIGKKLFTKQTGEKGRICNQVLVCERKYPRREYYFAITMERSFQGPVLIGSSHGGVNIEDVAAESPEAIIKEPIDIEEGIKKEQALQLAQKMGFPPNIVESAAENMVKLYSLFLKYDATMIEINPMVEDSDGAVLCMDAKINFDSNSAYRQKKIFDLQDWTQEDERDKDAAKANLNYIGLDGNIGCLVNGAGLAMATMDIIKLHGGTPANFLDVGGGATVHQVTEAFKLITSDKKVLAILVNIFGGIMRCDVIAQGIVMAVKDLEIKIPVVVRLQGTRVDDAKALIADSGLKILACDDLDEAARMVVKLSEIVTLAKQAHVDVKFQLPI", "partner": "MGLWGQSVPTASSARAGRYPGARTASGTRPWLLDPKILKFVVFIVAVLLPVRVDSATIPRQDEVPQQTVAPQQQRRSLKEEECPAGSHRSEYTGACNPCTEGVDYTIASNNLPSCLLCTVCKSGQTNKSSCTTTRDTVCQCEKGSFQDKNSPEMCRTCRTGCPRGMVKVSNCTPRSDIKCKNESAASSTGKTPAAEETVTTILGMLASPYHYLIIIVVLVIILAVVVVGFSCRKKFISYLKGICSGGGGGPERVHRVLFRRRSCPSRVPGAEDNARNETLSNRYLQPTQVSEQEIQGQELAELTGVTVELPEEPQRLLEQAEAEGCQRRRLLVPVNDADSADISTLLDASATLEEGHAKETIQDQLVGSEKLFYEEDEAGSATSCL"}, "B5": {"name": "Golgi SNAP receptor complex member 2 (Homo sapiens), O14653 (parent)", "chain": "B3 chain", "partner": "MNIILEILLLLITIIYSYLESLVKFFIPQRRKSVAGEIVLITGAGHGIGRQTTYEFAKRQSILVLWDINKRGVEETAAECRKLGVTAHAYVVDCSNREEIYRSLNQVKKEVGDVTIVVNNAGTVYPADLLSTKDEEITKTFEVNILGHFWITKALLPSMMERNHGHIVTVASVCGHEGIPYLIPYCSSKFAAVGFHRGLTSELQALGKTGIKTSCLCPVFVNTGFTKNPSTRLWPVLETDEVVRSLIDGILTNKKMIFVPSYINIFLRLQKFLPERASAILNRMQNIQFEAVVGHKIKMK"}, "B6": {"name": "Golgi SNAP receptor complex member 2 (Homo sapiens), O14653 (parent)", "chain": "B3 chain", "partner": "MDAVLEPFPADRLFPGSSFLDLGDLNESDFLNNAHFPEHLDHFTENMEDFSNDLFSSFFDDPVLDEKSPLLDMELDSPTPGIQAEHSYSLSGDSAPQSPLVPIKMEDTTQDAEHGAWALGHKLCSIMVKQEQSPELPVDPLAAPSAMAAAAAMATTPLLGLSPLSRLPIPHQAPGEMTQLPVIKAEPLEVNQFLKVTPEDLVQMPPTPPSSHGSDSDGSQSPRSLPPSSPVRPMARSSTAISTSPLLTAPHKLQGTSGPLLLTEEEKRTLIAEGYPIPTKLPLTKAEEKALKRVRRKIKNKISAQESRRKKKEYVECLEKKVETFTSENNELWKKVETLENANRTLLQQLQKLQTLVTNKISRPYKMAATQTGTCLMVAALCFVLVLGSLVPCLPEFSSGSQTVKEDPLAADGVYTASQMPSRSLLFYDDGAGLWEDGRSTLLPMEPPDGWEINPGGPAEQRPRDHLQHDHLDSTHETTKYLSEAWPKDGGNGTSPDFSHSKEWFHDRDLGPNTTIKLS"}, "B7": {"name": "Catenin alpha-3 (Homo sapiens), Q9UI47-2 (parent)", "chain": "MSAETPITLNIDPQDLQVQTFTVEKLLEPLIIQVTTLVNCPQNPSSRKKGRSKRASVLLASVEEATWNLLDKGEKIAQEATVLKDELTASLEEVRKESEALKVSAERFTDDPCFLPKREAVVQAARALLAAVTRLLILADMIDVMCLLQHVSAFQRTFESLKNVANKSDLQKTYQKLGKELENLDYLAFKRQQDLKSPNQRDEIAGARASLKENSPLLHSICSACLEHSDVASLKASKDTVCEEIQNALNVISNASQGIQNMTTPPEPQAATLGSALDELENLIVLNPLTVTEEEIRPSLEKRLEAIISGAALLADSSCTRDLHRERIIAECNAIRQALQDLLSEYMNNAGKKERSNTLNIALDNMCKKTRDLRRQLRKAIIDHVSDSFLDTTVPLLVLIEAAKNGREKEIKEYAAIFHEHTSRLVEVANLACSMSTNEDGIKIVKIAANHLETLCPQIINAALALAARPKSQAVKNTMEMYKRTWENHIHVLTEAVDDITSIDDFLAVSGMFLFF", "partner": "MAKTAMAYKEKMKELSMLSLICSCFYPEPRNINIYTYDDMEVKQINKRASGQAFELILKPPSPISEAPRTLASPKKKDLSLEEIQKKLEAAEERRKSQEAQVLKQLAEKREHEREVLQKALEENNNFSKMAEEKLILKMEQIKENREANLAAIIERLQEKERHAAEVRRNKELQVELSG"}, "B8": {"name": "Very-long-chain enoyl-CoA reductase (Homo sapiens), Q9NZ01 (parent)", "chain": "MKHYEVEILDAKTREKLCFLDKVEPHATIAEIKNLFTKTHPQWYPARQSLRLDPKGKSLKDEDVLQKLPVGTTATLYFRDLGAQISWVTVFLTEYAGPLFIYLLFYFRVPFIYGHKYDFTSSRHTVVHLACICHSFHYIKRLLETLFVHRFSHGTMPLRNIFKNCTYYWGFAAWMAYYINHPLYTPPTYGAQQVKLALAIFVICQLGNFSIHMALRDLRPAGSKTRKIPYPTKNPFTWLFLLVSCPNYTYEVGSWIGFAIMTQCLPVALFSLVGFTQMTIWAKGKHRSYLKEFRDYPPLRMPIIPFLL", "partner": "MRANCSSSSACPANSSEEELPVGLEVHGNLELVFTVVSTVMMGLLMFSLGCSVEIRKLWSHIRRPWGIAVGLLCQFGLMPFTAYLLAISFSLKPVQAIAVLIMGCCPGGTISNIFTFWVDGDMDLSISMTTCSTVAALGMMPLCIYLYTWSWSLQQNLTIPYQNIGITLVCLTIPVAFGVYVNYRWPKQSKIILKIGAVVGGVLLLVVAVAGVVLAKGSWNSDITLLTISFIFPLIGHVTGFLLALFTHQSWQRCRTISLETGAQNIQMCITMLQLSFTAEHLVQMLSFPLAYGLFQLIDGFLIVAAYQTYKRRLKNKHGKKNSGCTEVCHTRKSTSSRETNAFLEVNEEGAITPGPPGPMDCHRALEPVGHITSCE"}, "B9": {"name": "Very-long-chain enoyl-CoA reductase (Homo sapiens), Q9NZ01 (parent)", "chain": "B8 chain", "partner": "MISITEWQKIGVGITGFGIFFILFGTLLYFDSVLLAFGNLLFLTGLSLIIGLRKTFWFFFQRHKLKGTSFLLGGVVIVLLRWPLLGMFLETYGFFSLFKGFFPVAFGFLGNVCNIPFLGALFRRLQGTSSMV"}, "B10": {"name": "Golgi SNAP receptor complex member 2 (Homo sapiens), O14653 (parent)", "chain": "B3 chain", "partner": "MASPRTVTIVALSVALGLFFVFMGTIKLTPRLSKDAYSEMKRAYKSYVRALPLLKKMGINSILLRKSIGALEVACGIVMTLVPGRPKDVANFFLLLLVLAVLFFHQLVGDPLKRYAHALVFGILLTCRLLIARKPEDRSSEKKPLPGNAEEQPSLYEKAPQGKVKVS"}, "B11": {"name": "Very-long-chain enoyl-CoA reductase (Homo sapiens), Q9NZ01 (parent)", "chain": "B8 chain", "partner": "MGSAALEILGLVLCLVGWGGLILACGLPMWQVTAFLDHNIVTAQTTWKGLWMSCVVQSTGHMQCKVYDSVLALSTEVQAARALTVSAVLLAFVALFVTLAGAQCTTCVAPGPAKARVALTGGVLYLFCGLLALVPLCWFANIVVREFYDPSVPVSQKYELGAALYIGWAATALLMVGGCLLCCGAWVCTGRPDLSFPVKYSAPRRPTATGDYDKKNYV"}, "B12": {"name": "Very-long-chain enoyl-CoA reductase (Homo sapiens), Q9NZ01 (parent)", "chain": "B8 chain", "partner": "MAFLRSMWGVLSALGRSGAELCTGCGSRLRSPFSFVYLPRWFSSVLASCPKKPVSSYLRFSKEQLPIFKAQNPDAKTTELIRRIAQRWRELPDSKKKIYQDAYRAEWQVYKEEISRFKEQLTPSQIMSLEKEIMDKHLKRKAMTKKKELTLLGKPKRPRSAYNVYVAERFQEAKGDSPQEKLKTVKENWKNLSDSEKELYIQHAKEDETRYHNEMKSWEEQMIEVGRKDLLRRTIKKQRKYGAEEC"}, "B13": {"name": "Ceroid-lipofuscinosis neuronal protein 6 (Homo sapiens), Q9NWW5 (parent)", "chain": "B1 chain", "partner": "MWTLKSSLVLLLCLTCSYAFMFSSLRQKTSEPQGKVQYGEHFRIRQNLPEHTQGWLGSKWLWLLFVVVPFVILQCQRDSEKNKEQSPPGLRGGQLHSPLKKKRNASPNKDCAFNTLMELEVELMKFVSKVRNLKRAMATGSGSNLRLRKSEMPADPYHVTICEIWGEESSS"}}}
{"variants_of": "B1", "details": "with cisd2_human CISD2, Q8N5K1"}
{"variant": "L47F", "effect of a mutation on the interaction": "with no effect"}
{"variants_of": "B2", "details": "with cplx4_human CPLX4, Q7Z7G2"}
{"variant": "L47F", "effect of a mutation on the interaction": "with no effect"}
{"variant": "R6T", "effect of a mutation on the interaction": "with no effect"}
{"variant": "G123D", "effect of a mutation on the interaction": "with no effect"}
{"variants_of": "B3", "details": "with elov4_human ELOVL4, Q9GZR5"}
{"variant": "G144W", "effect of a mutation on the interaction": "with no effect"}
{"variants_of": "B4", "details": "with tr10d_human TNFRSF10D"}
{"variant": "D251N", "effect of a mutation on the interaction": "disrupting interaction strength"}
{"variant": "G118R", "effect of a mutation on the interaction": "disrupting interaction strength"}
{"variants_of": "B5", "details": "with dhb13_human HSD17B13, Q7Z5P4"}
{"variant": "G144W", "effect of a mutation on the interaction": "with no effect"}
{"variants_of": "B6", "details": "with cr3l1_human CREB3L1, Q96BA8"}
{"variant": "G144W", "effect of a mutation on the interaction": "with no effect"}
{"variants_of": "B7", "details": "with stmn2_human STMN2, Q93045"}
{"variant": "V94D", "effect of a mutation on the interaction": "with no effect"}
{"variants_of": "B8", "details": "with soat_human SLC10A6, Q3KNW5"}
{"variant": "P182L", "effect of a mutation on the interaction": "with no effect"}
{"variants_of": "B9", "details": "with got1a_human GOLT1A"}
{"variant": "P182L", "effect of a mutation on the interaction": "with no effect"}
{"variants_of": "B10", "details": "with nacho_human TMEM35A"}
{"variant": "G144W", "effect of a mutation on the interaction": "with no effect"}
{"variants_of": "B11", "details": "with cld5_human CLDN5, O00501"}
{"variant": "P182L", "effect of a mutation on the interaction": "disrupting interaction strength"}
{"variants_of": "B12", "details": "with tfam_human TFAM"}
{"variant": "P182L", "effect of a mutation on the interaction": "disrupting interaction strength"}
{"variants_of": "B13", "details": "with FAM209A"}
{"variant": "G123D", "effect of a mutation on the interaction": "with no effect"}
{"variant": "L47F", "effect of a mutation on the interaction": "with no effect"}
